Experiments:
Test in all cases: cell-based or functional assay
FKBP-hRL (112-311) = FKBP-hRL (112-311) (UniProt P62942)
hRL (112-311)-FKBP = hRL (112-311)-FKBP (UniProt P27652)
hRL (92-311)-FKBP = hRL (92-311)-FKBP (UniProt P27652)
FKBP-hRL (92-311) = FKBP-hRL (92-311) (UniProt P62942)
Chain of FKBP-hRL (92-311) (P62942 other isoform, or with tags, fused parts or gaps): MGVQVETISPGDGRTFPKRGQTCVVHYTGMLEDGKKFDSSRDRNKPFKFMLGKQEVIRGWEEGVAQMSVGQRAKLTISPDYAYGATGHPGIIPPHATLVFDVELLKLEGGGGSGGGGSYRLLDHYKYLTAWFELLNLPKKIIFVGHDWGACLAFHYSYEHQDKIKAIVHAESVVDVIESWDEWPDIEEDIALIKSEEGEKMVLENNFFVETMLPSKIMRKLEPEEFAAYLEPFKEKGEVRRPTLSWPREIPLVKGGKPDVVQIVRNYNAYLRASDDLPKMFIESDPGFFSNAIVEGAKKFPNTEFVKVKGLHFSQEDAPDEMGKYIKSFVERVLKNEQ

Chain of FKBP-hRL (112-311) (P62942 other isoform, or with tags, fused parts or gaps): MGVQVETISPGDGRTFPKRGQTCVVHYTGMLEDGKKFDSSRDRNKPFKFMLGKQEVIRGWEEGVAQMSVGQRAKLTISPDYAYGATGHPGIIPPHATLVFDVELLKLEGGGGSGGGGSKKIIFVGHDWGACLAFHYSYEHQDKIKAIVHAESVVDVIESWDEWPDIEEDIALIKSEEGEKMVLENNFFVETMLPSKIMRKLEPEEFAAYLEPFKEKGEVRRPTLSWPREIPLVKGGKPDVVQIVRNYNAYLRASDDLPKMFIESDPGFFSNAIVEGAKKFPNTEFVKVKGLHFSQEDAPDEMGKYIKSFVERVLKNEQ
Chain of hRL (1-91)-FRB (P27652 other isoform, or with tags, fused parts or gaps): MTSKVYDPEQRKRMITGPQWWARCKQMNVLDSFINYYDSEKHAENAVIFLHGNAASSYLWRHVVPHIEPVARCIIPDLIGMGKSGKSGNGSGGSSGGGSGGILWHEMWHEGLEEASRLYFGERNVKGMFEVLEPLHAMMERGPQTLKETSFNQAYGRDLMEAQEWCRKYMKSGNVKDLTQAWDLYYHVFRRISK
Chain of hRL (92-311)-FKBP (P27652 other isoform, or with tags, fused parts or gaps): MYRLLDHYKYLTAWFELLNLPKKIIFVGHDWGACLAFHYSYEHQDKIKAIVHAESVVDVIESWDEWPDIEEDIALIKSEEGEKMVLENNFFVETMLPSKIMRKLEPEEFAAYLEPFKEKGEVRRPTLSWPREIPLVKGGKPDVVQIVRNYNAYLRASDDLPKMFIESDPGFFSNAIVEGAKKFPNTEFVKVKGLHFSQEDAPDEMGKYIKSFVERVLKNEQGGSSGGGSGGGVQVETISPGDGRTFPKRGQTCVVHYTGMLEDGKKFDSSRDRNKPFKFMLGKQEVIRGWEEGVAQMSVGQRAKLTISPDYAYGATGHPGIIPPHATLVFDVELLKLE
Chain of hRL (1-111)-FRB (P27652 other isoform, or with tags, fused parts or gaps): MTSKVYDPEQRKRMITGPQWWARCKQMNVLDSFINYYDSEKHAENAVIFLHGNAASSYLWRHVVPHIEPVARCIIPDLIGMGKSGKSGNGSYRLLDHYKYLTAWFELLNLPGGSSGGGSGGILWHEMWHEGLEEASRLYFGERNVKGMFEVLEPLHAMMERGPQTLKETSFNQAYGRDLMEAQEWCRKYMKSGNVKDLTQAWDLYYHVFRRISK
Chain of hRL (112-311)-FKBP (P27652 other isoform, or with tags, fused parts or gaps): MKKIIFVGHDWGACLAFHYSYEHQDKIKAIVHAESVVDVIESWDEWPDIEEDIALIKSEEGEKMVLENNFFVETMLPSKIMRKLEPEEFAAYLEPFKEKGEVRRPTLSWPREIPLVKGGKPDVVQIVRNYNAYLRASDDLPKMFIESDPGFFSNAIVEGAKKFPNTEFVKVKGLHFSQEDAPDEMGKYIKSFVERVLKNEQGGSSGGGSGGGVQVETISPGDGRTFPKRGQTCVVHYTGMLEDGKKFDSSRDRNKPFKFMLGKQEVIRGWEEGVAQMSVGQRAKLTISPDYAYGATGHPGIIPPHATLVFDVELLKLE

Substance: FRB-hRL (1-111) (from UniProt P42345 2021-2113; P27652 1-111)
- Renilla luciferase activity (PCA, TnT lysate) (fold (+rapamycin against no rapamycin)) (FKBP-hRL (112-311)): 5.3
- Renilla luciferase activity (PCA, TnT lysate) (fold (+rapamycin against no rapamycin)) (hRL (112-311)-FKBP): 46

Substance: hRL (1-111)-FRB (from UniProt P27652 1-111; P42345 2021-2113)
- Renilla luciferase activity (PCA, TnT lysate) (fold (+rapamycin against no rapamycin)) (FKBP-hRL (112-311)): 81

Substance: FRB-hRL (1-91) (from UniProt P42345 2021-2113; P27652 1-91)
- Renilla luciferase activity (PCA, TnT lysate) (fold (+rapamycin against no rapamycin)) (hRL (92-311)-FKBP): 134

Substance: hRL (1-91)-FRB (from UniProt P27652 1-91; P42345 2021-2113)
- Renilla luciferase activity (PCA, TnT lysate) (fold (+rapamycin against no rapamycin)) (FKBP-hRL (92-311)): 8.6
